Reference: publication PMC11268888

Biological target: soluble head domain of CDV-H (canine distemper virus hemagglutinin), Kyoto Biken vaccine strain, mad (canine distemper virus (Kyoto Biken vaccine strain))
Experiment: SEC + other: non-reducing SDS-PAGE

soluble head domain of CDV-H (canine distemper virus hemagglutinin), Kyoto Biken vaccine strain, mad (domain or fragment)
stoichiometry N: 2
